B1: Centrosome-associated zinc finger protein Cp190 (Drosophila melanogaster (Fruit fly)), Q24478 (parent)
chain: MGEVKSVKVDNWGVFFLQKLQNFFNKTDYCDLTLQFRDNSQLKVHRLVLSACTDYFNVLEQTCEIVDDALIMPNEFQADVVVPIVNFMYTGTLEFELKMYGKLLRTAKEMNMTVLLKLLEAHRRTMENVNRQQRPPSPKGIRRRTVGQPSSGLPQQRVLGPSPQSRNVATPIAQRANTQRGSTGNTMSRTSGGSNRSPYGDSSNVKQEPTSPFEQLRKGYNNNKRPAQTSLLSPPSKKPSLEEVKEFAEQQRMRKQIAAEYGDNDPEYDGGMLYDDVHAGDDDDDDMPPQPSTSKQQSPQGTQTQLEHGSTTIILKQDSPSQTPTIIVKDSSNAKLNHTKIIAEVLRQYPHIVKGHKNIKLKIMPNTPAAPTEKSAPATVKPPANQSSATTSPHKKLHVSFKADKSTPLITAQQKAASSQQKSGTSQTTGNQGTGANPPANTAAAQKRRIDSKTMHALIAQGAENTTGPWLCLRCGVNGRPISIPSYRGFRRHLINTHKETIDPALCEHCGWRSVNNRELHFHMYMEHQTKSLLYTFAECALCNQSYRTKGELEAHINEVHTDDNKQQCIYCNKVFEQELQLYRHMKSYHKEQALEDGIIDETDEEFLGSQDEEEEAEGDEEQEPEQTGKVRILSDISLPATSAITVQQAQQEQLQEEDVEQVQQEVKFVGADGNEVELTDEQRKEILSQLNQQQAGATAGGVVMVLSEPEAEHVKQETDEKSLAGTEEEYDDSQIYSELGAADSVESAKKNIADESKESIDNLEWAENLIAESEEQSNKEPKSDKPRDDISEKLKELTGDWTEDENDDDVDDKPATAELASELANKDPEPTVHEEEDDIDLALQSLHKGPEEATEEKASEESVTSADDAVDAVPNINSQPEKMDVDSEAADEKASKAEVQIKKEAELENDQEEFIKEDSPIPHSDSVAELREAVTASEGEDDVHLEADNIRKELLDELIAEAEKPDQEKDIVQSEENATTEALDRSVTDEDDLVPPTQVSTEQMEIDEPAAEKAAENNEDTRTADEKEAVEDKPNQTQDVTTAEKPTLESAKAGDEATSGEAASVDKVKSLISEWGDDDEDEDENGVSAAAKEEL
partner: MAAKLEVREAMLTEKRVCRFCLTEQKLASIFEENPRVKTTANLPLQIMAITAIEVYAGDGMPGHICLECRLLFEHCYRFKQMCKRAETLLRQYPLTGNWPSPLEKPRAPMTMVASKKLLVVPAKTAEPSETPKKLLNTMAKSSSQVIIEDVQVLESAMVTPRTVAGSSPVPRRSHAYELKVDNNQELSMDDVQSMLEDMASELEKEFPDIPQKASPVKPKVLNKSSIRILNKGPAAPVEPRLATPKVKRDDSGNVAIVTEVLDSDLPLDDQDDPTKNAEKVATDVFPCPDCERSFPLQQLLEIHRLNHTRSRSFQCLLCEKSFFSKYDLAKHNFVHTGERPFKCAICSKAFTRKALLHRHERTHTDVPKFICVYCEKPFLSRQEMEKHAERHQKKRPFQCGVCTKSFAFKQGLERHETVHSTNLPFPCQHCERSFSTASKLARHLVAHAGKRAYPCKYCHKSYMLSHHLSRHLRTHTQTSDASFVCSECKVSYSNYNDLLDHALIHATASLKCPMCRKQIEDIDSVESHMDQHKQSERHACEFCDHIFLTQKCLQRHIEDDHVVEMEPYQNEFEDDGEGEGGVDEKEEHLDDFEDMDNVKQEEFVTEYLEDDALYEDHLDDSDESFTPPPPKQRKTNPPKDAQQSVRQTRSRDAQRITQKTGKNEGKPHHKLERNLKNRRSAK
B2: Centrosome-associated zinc finger protein Cp190 (Drosophila melanogaster (Fruit fly)), Q24478 (parent)
chain: B1 chain
partner: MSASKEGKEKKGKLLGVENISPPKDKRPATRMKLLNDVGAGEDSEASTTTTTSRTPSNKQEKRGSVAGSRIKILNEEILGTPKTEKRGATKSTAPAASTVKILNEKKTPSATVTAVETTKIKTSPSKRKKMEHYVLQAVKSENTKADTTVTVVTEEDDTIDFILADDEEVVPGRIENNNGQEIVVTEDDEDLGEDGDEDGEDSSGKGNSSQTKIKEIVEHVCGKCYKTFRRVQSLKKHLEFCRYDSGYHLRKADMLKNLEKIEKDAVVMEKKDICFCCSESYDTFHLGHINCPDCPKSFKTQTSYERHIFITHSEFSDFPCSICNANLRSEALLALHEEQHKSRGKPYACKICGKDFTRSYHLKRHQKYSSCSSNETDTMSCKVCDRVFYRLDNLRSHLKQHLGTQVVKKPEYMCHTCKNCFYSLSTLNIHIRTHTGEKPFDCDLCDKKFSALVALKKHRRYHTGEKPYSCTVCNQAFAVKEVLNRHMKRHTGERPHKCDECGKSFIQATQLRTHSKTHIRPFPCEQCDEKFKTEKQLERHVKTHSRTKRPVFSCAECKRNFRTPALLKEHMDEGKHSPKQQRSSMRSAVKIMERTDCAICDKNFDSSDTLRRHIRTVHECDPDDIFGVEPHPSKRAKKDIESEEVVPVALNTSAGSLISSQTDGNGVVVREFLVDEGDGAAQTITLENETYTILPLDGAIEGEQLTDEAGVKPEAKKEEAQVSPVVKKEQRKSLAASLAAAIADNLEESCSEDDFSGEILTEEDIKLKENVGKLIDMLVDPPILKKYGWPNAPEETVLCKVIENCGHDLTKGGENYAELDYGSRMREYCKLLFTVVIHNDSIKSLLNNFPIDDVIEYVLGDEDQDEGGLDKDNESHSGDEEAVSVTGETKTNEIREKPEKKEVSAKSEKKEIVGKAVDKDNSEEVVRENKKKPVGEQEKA

Variants of: B1
Conditions: with pita_drome pita

Q: V114N was tested. Which “effect of a mutation on the interaction” value did it give?
A: with no effect

Q: V114A was tested. Which “effect of a mutation on the interaction” value did it give?
A: with no effect

Q: Which “effect of a mutation on the interaction” value does the source give for K19A here?
A: with no effect

Q: L118A was tested. Which “effect of a mutation on the interaction” value did it give?
A: with no effect

Q: K117S was tested. Which “effect of a mutation on the interaction” value did it give?
A: with no effect

Q: For F15A, which “effect of a mutation on the interaction” value is on record?
A: with no effect

Variants of: B1
Conditions: with pita_drome pita
Remark: another data set of the same source

Q: V114N was tested. Which “effect of a mutation on the interaction” value did it give?
A: disrupting interaction strength

Q: For V114A, which “effect of a mutation on the interaction” value is on record?
A: disrupting interaction strength

Q: How did the “effect of a mutation on the interaction” value turn out when K19A was run?
A: disrupting interaction strength

Q: With K117S as the variant, how does the “effect of a mutation on the interaction” value read?
A: disrupting interaction strength

Q: How did the “effect of a mutation on the interaction” value turn out when F15A was run?
A: disrupting interaction strength

Variants of: B1
Conditions: with pita_drome pita
Remark: another data set of the same source

Q: How did the “effect of a mutation on the interaction” value turn out when L118A was run?
A: disrupting interaction strength

Q: How did the “effect of a mutation on the interaction” value turn out when V7A was run?
A: disrupting interaction strength

Variants of: B1
Conditions: with pita_drome pita
Remark: another data set of the same source

Q: How did the “effect of a mutation on the interaction” value turn out when V7A was run?
A: with no effect

Variants of: B2
Conditions: with suhw_drome su(Hw)

Q: K19A was tested. Which “effect of a mutation on the interaction” value did it give?
A: with no effect

Q: How did the “effect of a mutation on the interaction” value turn out when V7A was run?
A: with no effect

Q: For V114N, which “effect of a mutation on the interaction” value is on record?
A: with no effect

Q: For V114A, which “effect of a mutation on the interaction” value is on record?
A: with no effect

Q: With K117S as the variant, how does the “effect of a mutation on the interaction” value read?
A: with no effect

Variants of: B2
Conditions: with suhw_drome su(Hw)
Remark: another data set of the same source

Q: How did the “effect of a mutation on the interaction” value turn out when K19A was run?
A: disrupting interaction strength

Q: For F15A, which “effect of a mutation on the interaction” value is on record?
A: disrupting interaction strength

Q: With L118A as the variant, how does the “effect of a mutation on the interaction” value read?
A: disrupting interaction strength

Q: How did the “effect of a mutation on the interaction” value turn out when V114N was run?
A: disrupting interaction strength

Q: V114A was tested. Which “effect of a mutation on the interaction” value did it give?
A: disrupting interaction strength

Q: For K117S, which “effect of a mutation on the interaction” value is on record?
A: disrupting interaction strength

Variants of: B2
Conditions: with suhw_drome su(Hw)
Remark: another data set of the same source

Q: Which “effect of a mutation on the interaction” value does the source give for V7A here?
A: disrupting interaction strength

Variants of: B2
Conditions: with suhw_drome su(Hw)
Remark: another data set of the same source

Q: Which “effect of a mutation on the interaction” value does the source give for F15A here?
A: with no effect

Q: Which “effect of a mutation on the interaction” value does the source give for L118A here?
A: with no effect

From IntAct's records for PubMed 34830280
